# Results published in patent US20220064322A1 (JACOBIO PHARMACEUTICALS, published 2022).
# Like-named read-outs stand apart in the source and are kept apart here.
# T1: cynomolgus CD73 on the cell surface (293T/17-cynoCD73 cells) (cynomolgus (Macaca fascicularis), UniProt P21589 27-547 (human entry))
# T1 chain: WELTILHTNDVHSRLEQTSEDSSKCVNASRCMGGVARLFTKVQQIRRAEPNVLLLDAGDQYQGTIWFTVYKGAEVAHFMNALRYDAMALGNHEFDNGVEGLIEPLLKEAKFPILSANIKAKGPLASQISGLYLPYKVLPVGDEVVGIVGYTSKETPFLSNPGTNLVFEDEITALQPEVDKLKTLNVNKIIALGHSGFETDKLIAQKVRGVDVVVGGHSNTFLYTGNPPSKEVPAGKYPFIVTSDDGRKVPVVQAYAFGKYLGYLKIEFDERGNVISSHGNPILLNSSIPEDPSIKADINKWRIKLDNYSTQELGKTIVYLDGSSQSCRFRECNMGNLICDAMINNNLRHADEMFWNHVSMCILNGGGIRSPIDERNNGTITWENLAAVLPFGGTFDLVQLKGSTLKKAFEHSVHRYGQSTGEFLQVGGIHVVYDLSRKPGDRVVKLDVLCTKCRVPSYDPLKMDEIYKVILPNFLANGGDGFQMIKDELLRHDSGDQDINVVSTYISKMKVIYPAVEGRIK
# T2: human CD73 ecto-domain recombinant protein (huCD73) (human, UniProt P21589 27-547)
# T2 sequence: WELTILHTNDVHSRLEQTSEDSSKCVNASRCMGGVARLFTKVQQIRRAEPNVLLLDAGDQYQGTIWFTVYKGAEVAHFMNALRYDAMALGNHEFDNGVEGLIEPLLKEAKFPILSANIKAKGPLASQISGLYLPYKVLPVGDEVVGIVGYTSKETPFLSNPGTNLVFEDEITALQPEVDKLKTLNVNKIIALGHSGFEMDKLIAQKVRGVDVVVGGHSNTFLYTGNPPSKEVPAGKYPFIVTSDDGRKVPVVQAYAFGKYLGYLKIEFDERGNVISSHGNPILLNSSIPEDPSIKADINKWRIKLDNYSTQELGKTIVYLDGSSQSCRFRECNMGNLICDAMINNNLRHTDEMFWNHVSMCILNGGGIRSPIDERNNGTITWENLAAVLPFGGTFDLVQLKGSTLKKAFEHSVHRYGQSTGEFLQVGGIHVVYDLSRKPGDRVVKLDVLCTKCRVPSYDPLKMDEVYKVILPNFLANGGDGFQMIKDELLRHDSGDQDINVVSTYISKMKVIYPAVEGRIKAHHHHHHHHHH
# Tests used:
# [1] = molecular target: T1, cynomolgus CD73 on the cell surface …; experiment: cell-based or functional assay
# [2] = molecular target: T2, human CD73 ecto-domain recombinant …; experiment: cell-based or functional assay
# [3] = molecular target: T2, human CD73 ecto-domain recombinant …; experiment: indirect ELISA, coated soluble huCD73
# Method: (§1) The indirect ELISA method was applied to evaluate the binding ability of each positive clone to soluble huCD73 protein. Soluble huCD73 was coated, and gradient diluted samples were incubated, then HPR-labeled secondary antibody was added, finally TMB was added to develop the color, and OD450 was read after termination.
# (§2) 1 ug/ml of recombinant CD73 protein was coated on ELISA plates (Coning), incubate overnight at 4° C. The next day, wash 5 times in PBS and blocked with 200 ul/well 2% skimmed milk, a certain dose range of CD73 antibodies were incubated for 1 h at room temperature. Wash 5 times with PBST washing buffer (PBS, 0.05% Tween 20), add HRP-conjugated goat anti-mouse IgG (H+L) (Promega) and incubate at room temperature for 1 h to detect bound anti-CD73 antibodies; wash the plate 5 times again and add TMB (Life Technologies) for color development for 5 to 10 min; finally the reaction was stopped by adding 1N HCl, and the OD value was measured at 450 nm. GraphPad Prism software was used to generate data graphs and statistical affinity data.
# [4] = molecular target: T2, human CD73 ecto-domain recombinant …; experiment: indirect ELISA, coated soluble huCD73, curve fit
# Method: as §1, §2
# [5] = molecular target: T2, human CD73 ecto-domain recombinant …; experiment: indirect ELISA, coated soluble huCD73, HRP-labelled secondary antibody, OD450
# Method: as §1, §2
# [6] = molecular target: T1, cynomolgus CD73 on the cell surface …; experiment: flow cytometry on 293T/17-Cyno CD73 cells, curve fit
# Method: (§3) 2×10⁶ cells resuspended in PBS buffer were distributed into 96-well plates and incubated with gradient diluted humanized antibodies for 1 h at refrigerator 4° C. or on ice, then the cells was centrifuged for 3 min 1500 rpm at 4° C. and washed three times by PBS, and diluted APC-labeled goat anti-human polyclonal antibody (Biolegend) were incubated for 30 min at refrigerator 4° C. Finally, the cells were washed three times with PBS as described above and analyzed on MACSQuant flow cytometer. GraphPad Prism software was used to generate data graphs and statistical affinity data.
# (§4) The samples to be tested were incubated for 1 h at 4° C. after gradient dilution. After washing, 100 μL of APC-labeled secondary antibody was added to each well and incubated for 30 min. After washing, detecting on machine and the fluorescence value was read. GraphPad Prism software was used to generate data graphs and statistical affinity data.
# [7] = molecular target: T2, human CD73 ecto-domain recombinant …; experiment: indirect ELISA, coated huCD73 recombinant protein
# Method: (§5) Incubated with gradient diluted 100 μL/well of antibodies for 1 h at room temperature. After the plates were washed 3 times with 200 ul/well of PBST, 100 ul of diluted HRP-labeled secondary antibody at a ratio of 1:5000 was added to each well, and the plates were incubated for 1 hour at room temperature. The plates were washed 3 times with 200 ul/well of PBST, 100 ul of TMB was added to each well and reacted for 5 minutes at room temperature in the dark. […] read the OD value. The affinity of humanized antibodies and parent antibodies were similar to the antigen (table 9).
# [8] = molecular target: T1, cynomolgus CD73 on the cell surface …; experiment: cell-based or functional assay
# [9] = molecular target: T2, human CD73 ecto-domain recombinant …; experiment: indirect ELISA, coated huCD73 recombinant protein, curve fit
# Method: as §5
# [10] = molecular target: T2, human CD73 ecto-domain recombinant …; experiment: indirect ELISA, plate coated with 1 ug/ml huCD73 recombinant protein, HRP-labelled secondary antibody, RFU
# Method: as §5
# [11] = molecular target: T1, cynomolgus CD73 on the cell surface …; experiment: flow cytometry on 293T/17-Cyno CD73 cells
# Method: as §3, §4
# [12] = molecular target: T1, cynomolgus CD73 on the cell surface …; experiment: flow cytometry on 293T/17 cells expressing cynoCD73, APC-labelled goat anti-human antibody, MFI
# Method: as §3, §4
Binder,"IC50, blockade of 5'exonuclease activity on 293T/17-Cyno CD73 cells [1]","Bottom (lower plateau of the fitted curve), blockade of soluble huCD73 enzyme activity (AMP hydrolysis, luciferase/CellTiter-Glo) [2]","IC50, blockade of soluble huCD73 enzyme activity (AMP hydrolysis, luciferase/CellTiter-Glo) [2]","Top (upper plateau of the fitted curve), blockade of soluble huCD73 enzyme activity (AMP hydrolysis, luciferase/CellTiter-Glo) [2]",EC50 [3],Bottom [4],Top [4],EC50 (read off the curve) [5],Bottom [6],Top [6],EC50 [7],"IC50, blockade of 5'exonuclease activity on 293T/17-Cyno CD73 cells [8]",Bottom [9],Top [9],EC50 (read off the curve) [10],EC50 [11],EC50 (read off the curve) [12]
"94A12G11F2 (antibody, mouse IgG1, kappa, Hybridoma antibody, mouse IgG1 / mouse kappa full chains) heavy: QVQLQQSGAELAKPGASVKLSCKASGYTFTSYWMHWVKQRPGQGLEWIGYINPSSGYTKSNQKFKDKATLTADKSSSTAYMQLSSLTYEDSAVYYCGRWLLSAWFAYWGQGTLVTVSAAKTTPPSVYPLAPGSAAQTNSMVTLGCLVKGYFPEPVTVTWNSGSLSSGVHTFPAVLQSDLYTLSSSVTVPSSTWPSETVTCNVAHPASSTKVDKKIVPRDCGCKPCICTVPEVSSVFIFPPKPKDVLTITLTPKVTCVVVDISKDDPEVQFSWFVDDVEVHTAQTQPREEQFNSTFRSVSELPIMHQDWLNGKEFKCRVNSAAFPAPIEKTISKTKGRPKAPQVYTIPPPKEQMAKDKVSLTCMITDFFPEDITVEWQWNGQPAENYKNTQPIMDTDGSYFVYSKLNVQKSNWEAGNTFTCSVLHEGLHNHHTEKSLSHSPGK light: DIRMTQSPSSMYASLGERVTITCKASQDINTYLSWFQQKPGKSPKSLIYRSNILVDGVPSRFSGSGSGQDYSLTISSLEYEDMGIYYCLQYDDFPYTFGGGTKLEIKRADAAPTVSIFPPSSEQLTSGGASVVCFLNNFYPKDINVKWKIDGSERQNGVLNSWTDQDSKDSTYSMSSTLTLTKDEYERHNSYTCEATHKTSTSPIVKSFNRNEC",6 pM,6.21,1500 pM,87.8,242 pM,0.0566 OD450,2.94 OD450,~200 pM,–,–,–,–,–,–,–,–,–
"JB24Chi (antibody, human IgG1, kappa, V domains shown, Phage antibody, chimeric human IgG1 / human kappa full chains) VH: QVQLQQSGLELVKPGASVKMSCKASGYTFTDYNMHWVKQSHGKSLEWIGYIKPHNGGTTYNPKFEGKATLTVNKSSSTAYMELRSLTSEDSAVYYCVRCDFLYWYFDVWGTGTTVTVSS VL: DIVMTQSPAIMSASLGERVTMTCTASSSVSSSYLHWYQQKPGSSPKLWIYSTSNLASGVPGRFSGSGSGTSYSLTISSMEAEDAATYYCHQYHRSPLTFGAGTKLEMKR",84 pM,14.7,401 pM,102,39 pM,0.136 OD450,3.09 OD450,~40 pM,0.709 fluorescence,68.5 fluorescence,27.3 pM,5 pM,128 OD value,6600 OD value,~0.1 µg/mL,6380 pM,–
"JB24H2L1 (antibody, human IgG1, kappa, V domains shown, Humanized antibody of JB24Chi, human IgG1 / kappa) VH: QVQLVQSGAEVKKPGASVKMSCKASGYTFTDYNMHWVRQSPGKSLEWIGYIKPHNAGTTYNPKFEGRATLTVDTSASTAYMELSSLRSEDTAVYYCVRSDFLYWYFDVWGQGTTVTVSS VL: DIQMTQSPSSLSASVGDRVTITCTASSSVSSSYLHWYQQKPGKAPKLLIYSTSNLASGVPSRFSGSGSGTDFTLTISSLQPEDFATYYCHQYHRSPLTFGAGTKLEIKR",–,–,–,–,–,–,–,–,1.4 fluorescence,36.5 fluorescence,24.8 pM,79 pM,191 OD value,6290 OD value,~0.2 µg/mL,1890 pM,~2000 pM
"S1B5 (antibody, human IgG1, kappa, V domains shown, Phage antibody, chimeric human IgG1 / human kappa full chains) VH: EVQLKESGAELVKPGASVKISCKATGYTFTGYWIEWVKQRPGRGLEWIGEILPGSDITNYNEKFKGKATITADTSSNTAYMQLSSLTTEDSAIYYCARRGYDETGYAMDYWGQGTSVTVSS VL: DIVMTQSPASLAVSLGQRATISCKASQSVDYDGDSYMNWYQQKPGQPPKLLIHAASNLESGIPARFSGSGSGTDFTLNIHPVEEEDAAVYFCQQSKEVPWTFGEGTKLEIKR",85 pM,16.2,3260 pM,99.5,85 pM,0.007 OD450,2.93 OD450,~80 pM,–,–,–,–,–,–,–,–,–
"191C3A8B9 (antibody, mouse IgG1, kappa, V domains shown, Hybridoma antibody, mouse IgG1 / mouse kappa full chains) VH: QVQLKESGPGLVAPSQSLSITCTVSGFSLTNYGVHWVRQPPGKGLEWLGVIWAGGSTNYNSALMSRLSISKDNSKSQLFLKMNSLQADDTAMYYCARERGSSWGTMDYWGQGTSVTVSS VL: QIVLTQSPAIMSASPGEKVTMTCSASSRVSYMHWYQQKSGTSPKRWIYDTSQLASGVPARFSGSGSGTSYSLTISSMEAEDAATYYCQQWSSNPYTFGGGTKLEMRR",1 pM,5.55,2410 pM,93.7,279 pM,0.0498 OD450,2.75 OD450,~0.04 µg/mL,–,–,–,–,–,–,–,–,–
